# T1: [^125I]LS370
# T1 chain: XYXDEVDGKGC
# Target: T1, [^125I]LS370
protein,measurement,value
Caspase-3 (Cal Biochem) (protein) SGISLDNSYKMDYPEMGLCIIINNKNFHKSTGMTSRSGTDVDAANLRETFRNLKYEVRNKNDLTREEIVELMRDVSKEDHSKRSSFVCVLLSHGEEGIIFGTNGPVDLKKITNFFRGDRCRSLTGKPKLFIIQACRGTELDCGIETDSGVDDDMACHKIPVEADFLYAYSTAPGYYSWRNSKDGSWFIQSLCAMLKQYADKLEFMHILTRVNRKVATEFESFSFDATFHAKKQIPCIVSMLTKELYFYH,hydrolysis by caspase-3 (radiochromatogram),"[^125I]LS370 eluted at 19.5 min, and in the presence of caspase-3, the cleaved fragments eluted at 12.5 and 13 min"
same,"kcat (kinetic analysis of hydrolysis, radio-HPLC)",1.02 s⁻¹

# From patent US20210386875
